In US20100098696A1 (Eli Lilly, published 2010):
Where two headings read alike, the source gives them in different places.

How the values were obtained:
Human FGFR-3(IIIb) [1] = biological target: T1, Human FGFR-3(IIIb) (human, UniProt P22607-2 23-377, limits assumed); experiment: BiaCore 3000 SPR, room temperature
T1 construct: The construct in the BiaCore experiment is not described; it is probably recombinant ECD-Fc; also called b-splice form of human FGFR-3
T1 sequence (looked up): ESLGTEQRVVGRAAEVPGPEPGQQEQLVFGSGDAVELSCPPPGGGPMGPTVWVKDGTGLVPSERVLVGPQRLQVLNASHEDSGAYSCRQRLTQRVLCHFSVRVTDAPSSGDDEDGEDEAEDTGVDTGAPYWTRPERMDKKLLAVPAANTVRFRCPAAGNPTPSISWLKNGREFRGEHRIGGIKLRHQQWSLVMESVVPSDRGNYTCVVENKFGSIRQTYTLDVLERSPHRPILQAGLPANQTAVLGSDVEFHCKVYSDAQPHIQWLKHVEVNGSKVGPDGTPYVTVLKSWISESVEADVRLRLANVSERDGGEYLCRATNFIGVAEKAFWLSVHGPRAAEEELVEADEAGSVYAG

[2] = biological target: T2, FGFR-3(IIIb) truncate D1 (25-148)-Fc (human, UniProt P22607 25-148); experiment: Mesoscale binding assay and BIAcore
T2 construct: range 25-148; Homodimeric Fc fusion; not shown: human Fc tag of the pGS-Fc vector
T2 sequence: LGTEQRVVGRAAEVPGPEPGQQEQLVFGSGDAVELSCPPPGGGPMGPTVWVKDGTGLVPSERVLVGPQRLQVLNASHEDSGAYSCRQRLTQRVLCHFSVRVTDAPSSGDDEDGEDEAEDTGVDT

[3] = biological target: T3, FGFR-3(IIIb) truncate D3 (250-372)-Fc (human, UniProt P22607-2 250-372); experiment: Mesoscale binding assay and BIAcore
T3 construct: range 250-372; Homodimeric Fc fusion; not shown: human Fc tag of the pGS-Fc vector
T3 sequence (looked up): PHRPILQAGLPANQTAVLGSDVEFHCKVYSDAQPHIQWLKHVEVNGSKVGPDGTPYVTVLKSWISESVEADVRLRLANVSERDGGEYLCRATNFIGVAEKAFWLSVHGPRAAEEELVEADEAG

Human FGFR-3(IIIb) [4] = biological target: T1, Human FGFR-3(IIIb); experiment: BiaCore 3000 SPR, room temperature; remark: listed apart in the source
[5] = biological target: T4, FGFR-3(IIIb) or (IIIc) ECD (extracellular domain) Fc tagged soluble recombinant protein (human, UniProt P22607 23-375); experiment: ELISA blocking assay: FGFR-3 ECD-Fc (1 µg/ml) with antibody dilutions on FGF-1 coated plates; upper end of the range
T4 construct: extracellular domain; also called recombinant human FGFR-Fc; not shown: Fc tag
T4 sequence (looked up): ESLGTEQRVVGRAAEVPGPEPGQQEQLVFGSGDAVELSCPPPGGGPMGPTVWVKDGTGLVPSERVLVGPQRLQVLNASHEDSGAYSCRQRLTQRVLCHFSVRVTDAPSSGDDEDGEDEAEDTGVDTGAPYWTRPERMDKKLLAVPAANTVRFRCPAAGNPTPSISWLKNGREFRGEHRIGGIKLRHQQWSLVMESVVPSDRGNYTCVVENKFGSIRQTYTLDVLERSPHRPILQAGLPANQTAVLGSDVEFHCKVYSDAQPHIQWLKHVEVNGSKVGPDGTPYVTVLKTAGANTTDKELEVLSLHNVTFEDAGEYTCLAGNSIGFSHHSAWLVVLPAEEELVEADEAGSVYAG
Source text: (§1) Wash plates 3 times with 0.2% Tween20/PBS. […] Blocking activities lead to decreased signals.

[6] = biological target: T4, FGFR-3(IIIb) or (IIIc) ECD …; experiment: ELISA blocking assay: FGFR-3 ECD-Fc (1 µg/ml) with antibody dilutions on FGF-1 coated plates; lower end of the range
Source text: as §1

B1: Antibody 1 (antibody, human IgG1, lambda)
heavy: not shown
light: QSVLTQPPSLSVAPGKTATFTCGGNNIGDKSVHWYRQKPGQAPVLVMYLDTERPSGIPERMSGSNFGNTATLTITRVEAEDEADYYCQVWDSGSDHVVFGGGTKLTVLGQPKAAPSVTLFPPSSEELQANKATLVCLISDFYPGAVTVAWKADSSPVKAGVETTTPSKQSNNKYAASSYLSLTPEQWKSHRSYSCQVTHEGSTVEKTVAPAECS
notes: Human IgG1 from a naive human Fab phage library; It was ruthenium-labelled in the Mesoscale assay and Alexa Fluor-labelled in the internalisation assay; also called FGFR-3 antibody antagonist
Kd (Human FGFR-3(IIIb) [1]): 1 nM | binding result [2]: no binding (tested: 250-0.001 nM dilution series) | binding result [3]: no binding (tested: 250-0.001 nM dilution series) | Kd (Human FGFR-3(IIIb) [4]): 0.72 nM | IC50 [5]: ≤ 10 nM | IC50 [6]: ≥ 1 nM
